Measurements published in paper PMC12310515 (2025).
Like-named read-outs stand apart in the source and are kept apart here.

B1: KIR2DS1 (SPR protein) (receptor)
chain: HEGVHRKPSLLAHPGRLVKSEETVILQCWSDVMFEHFLLHREGMFNDTLRLIGEHHDGVSKANFSISRMKQDLAGTYRCYGSVTHSPYQLSAPSDPLDIVIIGLYEKPSLSAQPGPTVLAGENVTLSCSSRSSYDMYHLSREGEAHERRLPAGTKVNGTFQANFPLGPATHGGTYRCFGSFRDSPYEWSKSSDPLLVSVTGNPSNSWPSPTEPSSETGNPRHLH
B2: KIR2DL1 (residues 27-221) (domain or fragment)
chain: RKPSLLAHPGRLVKSEETVILQCWSDVMFEHFLLHREGMFNDTLRLIGEHHDGVSKANFSISRMTQDLAGTYRCYGSVTHSPYQVSAPSDPLDIVIIGLYEKPSLSAQLGPTVLAGENVTLSCSSRSSYDMYHLSREGEAHERRLPAGPKVNGTFQADFPLGPATHGGTYRCFGSFHDSPYEWSKSSDPLLVSVT
modifications: N-linked glycan on N67 (N-acetylglucosamine-fucose core seen in the structures)

Legend:
Experiment in all cases: SPR
KEN-04 [1] = target: T1, KEN-04 (P. falciparum pfKE01)
SEN-08 [2] = target: T2, SEN-08 (P. falciparum pfSN01)
KEN-02 [3] = target: T3, KEN-02 (P. falciparum pfKE01)
KEN-06 [4] = target: T4, KEN-06 (P. falciparum pfKE01)
SEN-01 [5] = target: T5, SEN-01 (P. falciparum pfSN01)
SEN-12 [6] = target: T6, SEN-12 (P. falciparum pfSN01)
KEN-04 [7] = target: T1, KEN-04; remark: listed apart in the source
SEN-08 [8] = target: T2, SEN-08; remark: listed apart in the source
KEN-02 [9] = target: T3, KEN-02; remark: listed apart in the source
KEN-06 [10] = target: T4, KEN-06; remark: listed apart in the source
SEN-01 [11] = target: T5, SEN-01; remark: listed apart in the source
SEN-12 [12] = target: T6, SEN-12; remark: listed apart in the source
[13] = target: one of the six Kenyan RIFINs (pfKE01) that bound to LILRB1
[14] = target: B2
KIR2DS1 (SPR protein) = target: B1

B1 gave a Kd (KEN-04 [1]) of 5400 nM, a Kd (SEN-08 [2]) of 2100 nM and a Kd (KEN-02 [3]) of 2600 nM. The Kd (KEN-06 [4]) was 900 nM, the Kd (SEN-01 [5]) was 1100 nM and the Kd (SEN-12 [6]) was 500 nM.

B2 gave a Kd (KEN-04 [7]) of 2000 nM, a Kd (SEN-08 [8]) of 3500 nM and a Kd (KEN-02 [9]) of 2200 nM. The Kd (KEN-06 [10]) was 400 nM, the Kd (SEN-01 [11]) was 3400 nM and the Kd (SEN-12 [12]) was 400 nM.

B3: LILRB1 (receptor)
chain: GHLPKPTLWAEPGSVITQGSPVTLRCQGGQETQEYRLYREKKTALWITRIPQELVKKGQFPIPSITWEHAGRYRCYYGSDTAGRSESSDPLELVVTGAYIKPTLSAQPSPVVNSGGNVILQCDSQVAFDGFSLCKEGEDEHPQCLNSQPHARGSSRAIFSVGPVSPSRRWWYRCYAYDSNSPYEWSLPSDLLELLVLGVSKKPSLSVQPGPIVAPEETLTLQCGSDAGYNRFVLYKDGERDFLQLAGAQPQAGLSQANFTLGPVSRSYGGQYRCYGAHNLSSEWSAPSDPLDILIAGQFYDRVSLSVQPGPTVASGENVTLLCQSQGWMQTFLLTKEGAADDPWRLRSTYQSQKYQAEFPMGPVTSAHAGTYRCYGSQSSKPYLLTHPSDPLELVVSGPSGGPSSPTTGPTSTSGPEDQPLTPTGSDPQSGLGRHLGVVIGILVAVILLLLLLLLLFLILRHRRQGKHWTSTQRKADFQHPAGAVGPEPTDRGLQWRSSPAADAQEENLYAAVKHTQPEDGVEMDTRSPHDEDPQAVTYAEVKHSRPRREMASPPSPLSGEFLDTKDRQAEEDRQMDTEAAASEAPQDVTYAQLHSLTLRREATEPPPSQEGPSPAVPSIYATLAIH
B3 was tested, and the Kd [13] was 2600 nM and the Kd (SEN-08 [8]) was 5500 nM.

B4: KEN-01 (mFc-tagged, SPR) (natural protein)
chain: AKGAAAAEAARIPAAIDAVIKGIVTKFGVSTESVQGLKSLFTANTYNDVTKIARAINEQYNPSSCLTGGSGADNSICPWAMENFFAARKIPGFIQREAVSMNDVIEKTVKTIVSDAPKTAETAAKKATEG
With B4 the Kd [14] was 100 nM and the Kd (KIR2DS1 (SPR protein)) was 300 nM.
